Assay results taken from publication PMC4951691.

How the values were obtained:
[1] = target: Cryptococcus neoformans Golgi Reassembly and Stacking Protein (CnGRASP) (Cryptococcus neoformans); test: dynamic light scattering; Nano-ZS, 20 °C, 25 mM Hepes/NaOH, 150 mM NaCl, 1 mM beta-mercaptoethanol, 10% glycerol, pH 7.4; mass worked out from the Rh of 3.9 nm
[2] = target: Cryptococcus neoformans Golgi Reassembly and Stacking Protein (CnGRASP) (Cryptococcus neoformans); test: SEC; Superdex 200 (HR 10/30), Akta purifier; hydrodynamic radius from the partition coefficient against standard proteins (calibration kit LMW/HMW); CHAPS left out of the protein preparation
[3] = target: Cryptococcus neoformans Golgi Reassembly and Stacking Protein (CnGRASP) (Cryptococcus neoformans); test: SEC + other: zone sedimentation in a sucrose gradient; Siegel and Monte model: Rh from SEC combined with the sedimentation coefficient (about 4.2 S) from a 10 to 35% sucrose gradient in 25 mM Hepes/NaOH, 150 mM NaCl, pH 7.4; CnGRASP less than 1 mg/mL; 100,000 g for 4 h at 4 °C

Measured: stoichiometry N

Cryptococcus neoformans Golgi Reassembly and Stacking Protein (CnGRASP) (natural protein)
2: all assays above
